Results published in article PMC2915561 (Biochemistry, 2010).
Positions count from the first letter of the chain named. In names and notes the source's numbering stands.

B1: LovK (25–163) (domain or fragment, Caulobacter crescentus, UniProt Q9ABE3 25-163, looked up)
chain: AAAISATRMAMIVADATQPDIPIIFANDAFLRLTGYARDEVIGRNCRFLQGPDTDPKAIQAVRDALAAGEDVAVDLLNYRKDGSPFWNALNMSPVRNDAGQLVYFFGSQVDVTDKKVVELRARDHSDGLQQMVEERTRE
B2: LovK (25–138), isolated LOV core (domain or fragment, Caulobacter crescentus, UniProt Q9ABE3 25-138, looked up)
chain: AAAISATRMAMIVADATQPDIPIIFANDAFLRLTGYARDEVIGRNCRFLQGPDTDPKAIQAVRDALAAGEDVAVDLLNYRKDGSPFWNALNMSPVRNDAGQLVYFFGSQVDVTD
B3: LovK (1–368), full-length Caulobacter crescentus LOV-histidine kinase (enzyme, UniProt Q9ABE3 1-368, looked up)
chain: MEDYSESRRAGERLAAGHGVDDPFAAAISATRMAMIVADATQPDIPIIFANDAFLRLTGYARDEVIGRNCRFLQGPDTDPKAIQAVRDALAAGEDVAVDLLNYRKDGSPFWNALNMSPVRNDAGQLVYFFGSQVDVTDKKVVELRARDHSDGLQQMVEERTRELTEALKQKTALLHEVDHRVKNNLQLISSLLLLQNRRVPDPAVKASLRGMLGRVNAIATVHRRLFQSEDVERFDVSAFIRDMVADLMGSAMRDDIRVELDLERVEIPAAKAAPLALVVNELLTNALRHGFPEGRGGRIFVGLSRLNGDFRIEITDDGVGQDRETRASGFGLTIVQLLCQQLKAKWETTDAEPGTRVVVLLPINGTQ
B4: LovK C70A (1–368), full-length "blind" mutant (enzyme, Caulobacter crescentus, UniProt Q9ABE3 1-368, looked up)
chain: B3 chain with C70A
B5: LovK (1–163) (domain or fragment, Caulobacter crescentus, UniProt Q9ABE3 1-163, looked up)
chain: MEDYSESRRAGERLAAGHGVDDPFAAAISATRMAMIVADATQPDIPIIFANDAFLRLTGYARDEVIGRNCRFLQGPDTDPKAIQAVRDALAAGEDVAVDLLNYRKDGSPFWNALNMSPVRNDAGQLVYFFGSQVDVTDKKVVELRARDHSDGLQQMVEERTRE
B6: LovK (1–138) (domain or fragment, Caulobacter crescentus, UniProt Q9ABE3 1-138, looked up)
chain: MEDYSESRRAGERLAAGHGVDDPFAAAISATRMAMIVADATQPDIPIIFANDAFLRLTGYARDEVIGRNCRFLQGPDTDPKAIQAVRDALAAGEDVAVDLLNYRKDGSPFWNALNMSPVRNDAGQLVYFFGSQVDVTD

Key:
SEC [1] = molecular target: the molecule itself; experiment: SEC
SEC [2] = molecular target: the molecule itself; experiment: SEC; remark: listed apart in the source
SAXS = molecular target: the molecule itself; experiment: SAXS

| Protein | stoichiometry N (SEC [1]) | other results |
| --- | --- | --- |
| B1 | 2 |  |
| B2 | 2 |  |
| B3 |  | stoichiometry N (SEC [2]): 2 |
| B4 |  | stoichiometry N (SAXS): 2 |
| B5 | 2 |  |
| B6 | 2 |  |
